IntAct's records for PubMed 11447112

Target: gapa_dicdi gapA (UniProt O00899)
Sequence (O00899 whole entry): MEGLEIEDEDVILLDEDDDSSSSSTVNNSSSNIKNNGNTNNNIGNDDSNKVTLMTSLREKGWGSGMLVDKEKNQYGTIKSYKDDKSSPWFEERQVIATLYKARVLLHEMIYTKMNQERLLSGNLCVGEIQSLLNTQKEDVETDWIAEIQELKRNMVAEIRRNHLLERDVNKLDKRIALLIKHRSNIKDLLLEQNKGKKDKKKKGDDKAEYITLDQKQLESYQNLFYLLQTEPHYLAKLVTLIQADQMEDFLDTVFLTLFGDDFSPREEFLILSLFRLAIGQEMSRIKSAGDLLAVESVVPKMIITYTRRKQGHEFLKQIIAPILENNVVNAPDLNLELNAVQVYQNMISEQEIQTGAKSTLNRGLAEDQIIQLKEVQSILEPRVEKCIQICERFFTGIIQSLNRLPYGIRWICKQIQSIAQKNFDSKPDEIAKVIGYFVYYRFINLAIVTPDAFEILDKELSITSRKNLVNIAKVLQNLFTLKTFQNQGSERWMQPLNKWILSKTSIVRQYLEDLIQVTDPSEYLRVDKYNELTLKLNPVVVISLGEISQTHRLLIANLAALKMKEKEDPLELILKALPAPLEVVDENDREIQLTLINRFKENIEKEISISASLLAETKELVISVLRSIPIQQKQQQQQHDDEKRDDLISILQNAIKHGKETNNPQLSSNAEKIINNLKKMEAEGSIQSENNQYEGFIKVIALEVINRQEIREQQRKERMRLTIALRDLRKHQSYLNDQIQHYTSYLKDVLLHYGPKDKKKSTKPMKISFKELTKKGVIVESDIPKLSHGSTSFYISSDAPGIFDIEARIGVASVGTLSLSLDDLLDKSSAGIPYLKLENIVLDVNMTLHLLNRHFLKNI

effect of a mutation on the interaction: disrupting interaction
Substance: Rho-related protein rac1A (Dictyostelium discoideum (Slime mold)), P34144 G12N
